Results from paper PMC9482650, “Quantitative fragmentomics allow affinity mapping of interactomes” (Nature Communications, 2022).

T1: APBA2_1, Q99767
T1 sequence (Q99767 563-664, limits assumed, looked up): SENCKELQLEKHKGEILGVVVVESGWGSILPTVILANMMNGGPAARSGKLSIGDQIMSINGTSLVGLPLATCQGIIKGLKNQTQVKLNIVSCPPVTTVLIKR

T2: APBA3_1, O96018
T2 sequence (O96018 389-490, limits assumed, looked up): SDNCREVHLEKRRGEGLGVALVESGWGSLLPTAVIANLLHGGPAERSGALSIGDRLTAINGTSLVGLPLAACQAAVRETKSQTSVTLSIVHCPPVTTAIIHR

T3: DFNB31_2, Q9P202
T3 sequence (Q9P202 274-371, limits assumed, looked up): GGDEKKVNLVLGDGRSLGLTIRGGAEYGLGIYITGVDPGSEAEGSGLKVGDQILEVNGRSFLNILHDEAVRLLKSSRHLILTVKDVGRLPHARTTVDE

T4: DVL3, Q92997
T4 sequence (Q92997 244-331, limits assumed, looked up): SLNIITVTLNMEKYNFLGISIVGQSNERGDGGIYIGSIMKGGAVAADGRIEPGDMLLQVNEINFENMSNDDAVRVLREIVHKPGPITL

T5: HTRA3, P83110
T5 sequence (P83110 354-453, limits assumed, looked up): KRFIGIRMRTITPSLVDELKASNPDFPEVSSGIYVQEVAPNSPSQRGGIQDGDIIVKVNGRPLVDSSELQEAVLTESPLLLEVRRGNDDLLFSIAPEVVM

T6: NHERF3_3, Q5T2W1
T6 sequence (Q5T2W1 238-333, limits assumed, looked up): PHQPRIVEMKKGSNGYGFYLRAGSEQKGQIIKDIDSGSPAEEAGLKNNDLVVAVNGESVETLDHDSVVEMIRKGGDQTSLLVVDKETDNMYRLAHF

T7: PARD3B_1, Q8TEW8
T7 sequence (Q8TEW8 196-299, limits assumed, looked up): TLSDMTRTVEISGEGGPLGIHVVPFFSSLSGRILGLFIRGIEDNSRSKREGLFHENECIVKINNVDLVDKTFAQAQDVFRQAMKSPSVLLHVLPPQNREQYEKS

T8: PDZD7_3, Q9H5P4
T8 sequence (Q9H5P4 857-944, limits assumed, looked up): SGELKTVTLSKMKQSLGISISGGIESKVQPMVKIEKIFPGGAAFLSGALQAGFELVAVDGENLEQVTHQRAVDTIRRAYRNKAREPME

T9: SIPA1L2, Q9P2F8
T9 sequence (Q9P2F8 945-1036, limits assumed, looked up): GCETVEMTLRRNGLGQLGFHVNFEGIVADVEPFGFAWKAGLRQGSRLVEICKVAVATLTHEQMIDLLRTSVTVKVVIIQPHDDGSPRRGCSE

T10: SNTA1, Q13424
T10 sequence (Q13424 82-180, limits assumed, looked up): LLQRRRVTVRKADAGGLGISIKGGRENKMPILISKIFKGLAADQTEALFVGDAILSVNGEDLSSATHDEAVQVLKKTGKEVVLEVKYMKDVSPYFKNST

T11: SNTG1, Q9NSN8
T11 sequence (Q9NSN8 52-150, limits assumed, looked up): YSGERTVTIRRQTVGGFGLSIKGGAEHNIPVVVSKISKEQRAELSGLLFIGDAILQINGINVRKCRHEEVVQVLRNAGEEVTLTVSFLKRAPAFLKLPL

T12: TJP3_3, O95049
T12 sequence (O95049 375-456, limits assumed, looked up): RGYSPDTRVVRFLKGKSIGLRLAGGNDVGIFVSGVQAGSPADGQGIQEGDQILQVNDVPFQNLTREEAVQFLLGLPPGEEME

B1: ABCA7, Q8IZY2 (peptide)
chain: DDPSTAETVL
B2: BPIFA2, Q96DR5 (peptide)
chain: QHKTQLQTLI
B3: ATP2A2, P16615;P16615-3 (peptide)
chain: YLEPVLSSEL
B4: GJD4, Q96KN9 (peptide)
chain: HLRARKSEWV

Target: T1, APBA2_1, Q99767
Experiment: holdup assay
Set-up: key: below the threshold = too weak to quantify, mostly under pKd 3.1 to 4
Conditions: plain residues with an end cap or a label only (N-terminal biotin on a linker: ado-ado)

Row | pKd | Binder
1 | below the threshold | B1
2 | below the threshold | B2
3 | below the threshold | B3
4 | below the threshold | B4

Target: T2, APBA3_1, O96018
Experiment: holdup assay
Set-up: key: below the threshold = too weak to quantify, mostly under pKd 3.1 to 4
Conditions: plain residues with an end cap or a label only (N-terminal biotin on a linker: ado-ado)

Row | pKd | Binder
5 | below the threshold | B1
6 | below the threshold | B2
7 | below the threshold | B3
8 | below the threshold | B4

Target: ARHGEF12, Q9NZN5-2
Sequence (Q9NZN5 other isoform, or with tags, fused parts or gaps): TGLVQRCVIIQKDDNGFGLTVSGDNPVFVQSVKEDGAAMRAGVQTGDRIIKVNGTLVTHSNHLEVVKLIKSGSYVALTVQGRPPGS
Experiment: holdup assay
Set-up: key: below the threshold = too weak to quantify, mostly under pKd 3.1 to 4
Conditions: plain residues with an end cap or a label only (N-terminal biotin on a linker: ado-ado)

Row | pKd | Binder
9 | 4.63 | B1
10 | 4.33 | B2
11 | 5.38 | B3
12 | below the threshold | B4

Target: CASK, O14936
Sequence (O14936 487-570): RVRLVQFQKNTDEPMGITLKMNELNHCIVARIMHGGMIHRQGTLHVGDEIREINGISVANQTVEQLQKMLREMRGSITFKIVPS
Experiment: holdup assay
Set-up: key: below the threshold = too weak to quantify, mostly under pKd 3.1 to 4
Conditions: plain residues with an end cap or a label only (N-terminal biotin on a linker: ado-ado)

Row | pKd | Binder
13 | below the threshold | B1
14 | below the threshold | B2
15 | below the threshold | B3
16 | below the threshold | B4

Target: T3, DFNB31_2, Q9P202
Experiment: holdup assay
Set-up: key: below the threshold = too weak to quantify, mostly under pKd 3.1 to 4
Conditions: plain residues with an end cap or a label only (N-terminal biotin on a linker: ado-ado)

Row | pKd | Binder
17 | below the threshold | B1
18 | below the threshold | B2
19 | below the threshold | B3
20 | below the threshold | B4

Target: DLG2_2, Q15700
Sequence (Q15700 189-283): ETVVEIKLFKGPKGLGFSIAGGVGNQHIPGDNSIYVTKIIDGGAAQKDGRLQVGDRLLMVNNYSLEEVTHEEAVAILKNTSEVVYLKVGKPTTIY
Experiment: holdup assay
Set-up: key: below the threshold = too weak to quantify, mostly under pKd 3.1 to 4
Conditions: plain residues with an end cap or a label only (N-terminal biotin on a linker: ado-ado)

Row | pKd | Binder
21 | below the threshold | B1
22 | 4.32 | B2
23 | below the threshold | B3
24 | 3.62 | B4

Target: T4, DVL3, Q92997
Experiment: holdup assay
Set-up: key: below the threshold = too weak to quantify, mostly under pKd 3.1 to 4
Conditions: plain residues with an end cap or a label only (N-terminal biotin on a linker: ado-ado)

Row | pKd | Binder
25 | below the threshold | B1
26 | below the threshold | B2
27 | below the threshold | B3
28 | 3.79 | B4

Target: GORASP1, Q9BQQ3
Sequence (Q9BQQ3 1-208): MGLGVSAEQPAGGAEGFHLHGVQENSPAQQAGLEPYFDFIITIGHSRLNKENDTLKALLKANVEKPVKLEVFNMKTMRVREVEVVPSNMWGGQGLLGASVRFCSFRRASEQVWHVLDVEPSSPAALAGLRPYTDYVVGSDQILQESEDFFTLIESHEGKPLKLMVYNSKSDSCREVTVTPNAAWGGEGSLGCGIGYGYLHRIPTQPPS
Experiment: holdup assay
Set-up: key: below the threshold = too weak to quantify, mostly under pKd 3.1 to 4
Conditions: plain residues with an end cap or a label only (N-terminal biotin on a linker: ado-ado)

Row | pKd | Binder
29 | below the threshold | B1
30 | 3.73 | B2
31 | below the threshold | B3
32 | 5 | B4

Target: GRIP2_3, Q9C0E4
Sequence (Q9C0E4 238-339): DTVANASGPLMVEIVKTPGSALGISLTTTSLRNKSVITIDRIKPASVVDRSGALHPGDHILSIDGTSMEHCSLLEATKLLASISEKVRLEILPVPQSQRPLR
Experiment: holdup assay
Set-up: key: below the threshold = too weak to quantify, mostly under pKd 3.1 to 4
Conditions: plain residues with an end cap or a label only (N-terminal biotin on a linker: ado-ado)

Row | pKd | Binder
33 | below the threshold | B1
34 | below the threshold | B2
35 | below the threshold | B3
36 | below the threshold | B4

Target: GRIP2_7, Q9C0E4
Sequence (Q9C0E4 934-1023): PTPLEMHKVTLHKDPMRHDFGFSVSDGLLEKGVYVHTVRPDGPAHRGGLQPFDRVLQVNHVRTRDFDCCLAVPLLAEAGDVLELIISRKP
Experiment: holdup assay
Set-up: key: below the threshold = too weak to quantify, mostly under pKd 3.1 to 4
Conditions: plain residues with an end cap or a label only (N-terminal biotin on a linker: ado-ado)

Row | pKd | Binder
37 | below the threshold | B1
38 | below the threshold | B2
39 | below the threshold | B3
40 | 4.04 | B4

Target: T5, HTRA3, P83110
Experiment: holdup assay
Set-up: key: below the threshold = too weak to quantify, mostly under pKd 3.1 to 4
Conditions: plain residues with an end cap or a label only (N-terminal biotin on a linker: ado-ado)

Row | pKd | Binder
41 | below the threshold | B1
42 | below the threshold | B2
43 | below the threshold | B3
44 | 5.81 | B4

Target: LIMK2, P53671
Sequence (P53671 143-248): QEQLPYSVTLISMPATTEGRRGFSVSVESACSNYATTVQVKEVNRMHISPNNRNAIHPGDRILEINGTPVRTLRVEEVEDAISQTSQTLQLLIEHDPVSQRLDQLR
Experiment: holdup assay
Set-up: key: below the threshold = too weak to quantify, mostly under pKd 3.1 to 4
Conditions: plain residues with an end cap or a label only (N-terminal biotin on a linker: ado-ado)

Row | pKd | Binder
45 | below the threshold | B1
46 | below the threshold | B2
47 | below the threshold | B3
48 | below the threshold | B4

Target: MAGI1_2, Q96QZ7
Sequence (Q96QZ7 456-580): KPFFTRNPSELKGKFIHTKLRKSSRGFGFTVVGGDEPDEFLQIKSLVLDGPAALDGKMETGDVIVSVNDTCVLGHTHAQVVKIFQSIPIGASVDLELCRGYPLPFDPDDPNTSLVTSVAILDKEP
Experiment: holdup assay
Set-up: key: below the threshold = too weak to quantify, mostly under pKd 3.1 to 4
Conditions: plain residues with an end cap or a label only (N-terminal biotin on a linker: ado-ado)

Row | pKd | Binder
49 | below the threshold | B1
50 | 4.32 | B2
51 | below the threshold | B3
52 | below the threshold | B4

Target: T6, NHERF3_3, Q5T2W1
Experiment: holdup assay
Set-up: key: below the threshold = too weak to quantify, mostly under pKd 3.1 to 4
Conditions: plain residues with an end cap or a label only (N-terminal biotin on a linker: ado-ado)

Row | pKd | Binder
53 | below the threshold | B1
54 | below the threshold | B2
55 | below the threshold | B3
56 | below the threshold | B4

Target: NHERF4_2, Q86UT5
Sequence (Q86UT5 220-308): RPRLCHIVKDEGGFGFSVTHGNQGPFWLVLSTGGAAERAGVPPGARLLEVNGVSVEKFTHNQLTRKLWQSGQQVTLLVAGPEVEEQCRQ
Experiment: holdup assay
Set-up: key: below the threshold = too weak to quantify, mostly under pKd 3.1 to 4
Conditions: plain residues with an end cap or a label only (N-terminal biotin on a linker: ado-ado)

Row | pKd | Binder
57 | below the threshold | B1
58 | below the threshold | B2
59 | below the threshold | B3
60 | below the threshold | B4

Target: T7, PARD3B_1, Q8TEW8
Experiment: holdup assay
Set-up: key: below the threshold = too weak to quantify, mostly under pKd 3.1 to 4
Conditions: plain residues with an end cap or a label only (N-terminal biotin on a linker: ado-ado)

Row | pKd | Binder
61 | 4.65 | B1
62 | 4.22 | B2
63 | 4.04 | B3
64 | below the threshold | B4

Target: PARD3_3, Q8TEW0
Sequence (Q8TEW0 582-685): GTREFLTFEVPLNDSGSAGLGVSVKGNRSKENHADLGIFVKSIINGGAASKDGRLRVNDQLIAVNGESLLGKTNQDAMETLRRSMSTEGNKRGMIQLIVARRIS
Experiment: holdup assay
Set-up: key: below the threshold = too weak to quantify, mostly under pKd 3.1 to 4
Conditions: plain residues with an end cap or a label only (N-terminal biotin on a linker: ado-ado)

Row | pKd | Binder
65 | 4.56 | B1
66 | 3.83 | B2
67 | below the threshold | B3
68 | below the threshold | B4

Target: T8, PDZD7_3, Q9H5P4
Experiment: holdup assay
Set-up: key: below the threshold = too weak to quantify, mostly under pKd 3.1 to 4
Conditions: plain residues with an end cap or a label only (N-terminal biotin on a linker: ado-ado)

Row | pKd | Binder
69 | 4.98 | B1
70 | 5.15 | B2
71 | 4.91 | B3
72 | below the threshold | B4

Target: SCRIB_1, Q14160
Sequence (Q14160 718-814): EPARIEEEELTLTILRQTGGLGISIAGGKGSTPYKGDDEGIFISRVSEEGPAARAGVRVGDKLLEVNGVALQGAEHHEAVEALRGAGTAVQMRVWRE
Experiment: holdup assay
Set-up: key: below the threshold = too weak to quantify, mostly under pKd 3.1 to 4
Conditions: plain residues with an end cap or a label only (N-terminal biotin on a linker: ado-ado)

Row | pKd | Binder
73 | 4.37 | B1
74 | 4.02 | B2
75 | 4.38 | B3
76 | below the threshold | B4

Target: SCRIB_3, Q14160
Sequence (Q14160 999-1103): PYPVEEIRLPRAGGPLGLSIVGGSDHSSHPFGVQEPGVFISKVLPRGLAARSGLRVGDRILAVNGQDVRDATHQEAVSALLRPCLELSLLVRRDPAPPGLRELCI
Experiment: holdup assay
Set-up: key: below the threshold = too weak to quantify, mostly under pKd 3.1 to 4
Conditions: plain residues with an end cap or a label only (N-terminal biotin on a linker: ado-ado)

Row | pKd | Binder
77 | 4.73 | B1
78 | 4.2 | B2
79 | 4.51 | B3
80 | below the threshold | B4

Target: T9, SIPA1L2, Q9P2F8
Experiment: holdup assay
Set-up: key: below the threshold = too weak to quantify, mostly under pKd 3.1 to 4
Conditions: plain residues with an end cap or a label only (N-terminal biotin on a linker: ado-ado)

Row | pKd | Binder
81 | below the threshold | B1
82 | below the threshold | B2
83 | below the threshold | B3
84 | below the threshold | B4

Target: T10, SNTA1, Q13424
Experiment: holdup assay
Set-up: key: below the threshold = too weak to quantify, mostly under pKd 3.1 to 4
Conditions: plain residues with an end cap or a label only (N-terminal biotin on a linker: ado-ado)

Row | pKd | Binder
85 | 4.71 | B1
86 | below the threshold | B2
87 | below the threshold | B3
88 | below the threshold | B4

Target: T11, SNTG1, Q9NSN8
Experiment: holdup assay
Set-up: key: below the threshold = too weak to quantify, mostly under pKd 3.1 to 4
Conditions: plain residues with an end cap or a label only (N-terminal biotin on a linker: ado-ado)

Row | pKd | Binder
89 | 3.66 | B1
90 | 3.47 | B2
91 | below the threshold | B3
92 | 3.6 | B4

Target: TJP1_2, Q07157
Sequence (Q07157 181-274): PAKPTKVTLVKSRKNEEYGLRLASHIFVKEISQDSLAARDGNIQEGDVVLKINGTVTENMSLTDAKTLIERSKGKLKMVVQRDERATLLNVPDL
Experiment: holdup assay
Set-up: key: below the threshold = too weak to quantify, mostly under pKd 3.1 to 4
Conditions: plain residues with an end cap or a label only (N-terminal biotin on a linker: ado-ado)

Row | pKd | Binder
93 | below the threshold | B1
94 | below the threshold | B2
95 | below the threshold | B3
96 | 4.97 | B4

Target: TJP2_1, Q9UDY2
Sequence (Q9UDY2 24-128): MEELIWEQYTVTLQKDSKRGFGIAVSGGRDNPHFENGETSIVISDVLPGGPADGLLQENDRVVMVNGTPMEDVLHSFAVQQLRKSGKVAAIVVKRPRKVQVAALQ
Experiment: holdup assay
Set-up: key: below the threshold = too weak to quantify, mostly under pKd 3.1 to 4
Conditions: plain residues with an end cap or a label only (N-terminal biotin on a linker: ado-ado)

Row | pKd | Binder
97 | below the threshold | B1
98 | 3.66 | B2
99 | below the threshold | B3
100 | 6.04 | B4

Target: T12, TJP3_3, O95049
Experiment: holdup assay
Set-up: key: below the threshold = too weak to quantify, mostly under pKd 3.1 to 4
Conditions: plain residues with an end cap or a label only (N-terminal biotin on a linker: ado-ado)

Row | pKd | Binder
101 | below the threshold | B1
102 | below the threshold | B2
103 | below the threshold | B3
104 | 4.63 | B4
